Target: human BKCa channel α-subunit (hSlo1), residues 1-1,114 (human)
Assay: cryo-EM structure; purified tetrameric channel (5.5 mg/ml, 44 μM) in 20 mM Tris-HCl pH 8.0, 450 mM KCl, 10 mM CaCl2, 10 mM MgCl2, 0.01% glyco-diosgenin, POPE/POPC/POPA, mixed with 1 mM CTIBD on ice for 30 min; C1 and C4 symmetry

A stoichiometry N of 4 was found for “human BKCa channel α-subunit (hSlo1), residues 1-1,114 (natural protein)” in this work.

Reference: publication PMC11294680
